From US20250011363A1, “OPTIMIZED SHORTENED PEPTIDE THAT BINDS TO ACETYLCHOLINE RECEPTOR, AND USE THEREOF” (SKINMED CO., LTD., priority 2021, published 2025) come the findings set out here.

The target in this assay is acetylcholine receptor. Briefly: SPR, AchR immobilised on CM5 chip, peptide 10 uM. For orientation: SPR reads the build-up and loss of mass on a sensor chip optically.

For the molecule RICGRK [6mer-2-767], the Binding affinity (RU) is 13 RU. In turn, KHSPRK [6mer-2-765] had a Binding affinity (RU) of 23 RU. As for RHPAKK [6mer-2-772], the Binding affinity (RU) amounted to 15 RU. Molecule KPNMKK [6mer-2-770] yielded a Binding affinity (RU) of 24 RU. Under RFSFKK [6mer-2-758] stands 18 RU.

KADGRR [6mer-2-754]: the Binding affinity (RU) was determined as 12 RU. On to RFDKKR [6mer-2-748], for which the Binding affinity (RU) came to 28 RU.

The molecule RNAVKK [6mer-2-764] gave a Binding affinity (RU) of 31 RU. For the molecule KINWRR [6mer-2-752], the Binding affinity (RU) was 29 RU. In turn, KFDARK [6mer-2-774] showed a Binding affinity (RU) of 17 RU.

In the case of KITARR [6mer-2-771], the Binding affinity (RU) was found to be 26 RU. Consider KYMGRK [6mer-2-768], for which the Binding affinity (RU) stood at 22 RU. Molecule KIPVKK [6mer-2-760] showed a Binding affinity (RU) of 15 RU. As for RPTFRK [6mer-2-766], the figure is 23 RU; as for KMWKRK [6mer-2-749], 20 RU; as for KMKERR [6mer-2-763], 19 RU. Under KPDARR [6mer-2-773] stands 11 RU; under KFEERK [6mer-2-762], 24 RU.

Molecule RKCVKR [6mer-2-750] showed a Binding affinity (RU) of 29 RU. Under RIPNKR [6mer-2-757] stands 19 RU; under RFDEKK [6mer-2-759], 18 RU; under RCPFRK [6mer-2-769], 13 RU. As for RYEHRR [6mer-2-753], the Binding affinity (RU) worked out at 18 RU. Consider RPHWKR [6mer-2-751], for which the Binding affinity (RU) is 12 RU. Under KMSMKK [6mer-2-775] stands 26 RU.

On to RYNDKK [6mer-2-755], for which the Binding affinity (RU) came to 18 RU. For RTEPRK [6mer-2-761], the Binding affinity (RU) was determined as 29 RU. Under KPTNRK [6mer-2-756] stands 26 RU.
